Biological target: the molecule itself

B1: WDR26 (subunit of the recombinant WDR26-CTLH E3) (natural protein, human, UniProt Q9H7D7 1-661, looked up)
chain: MQANGAGGGGGGGGGGGGGGGGGGGQGQTPELACLSAQNGESSPSSSSSAGDLAHANGLLPSAPSAASNNSNSLNVNNGVPGGAAAASSATVAAASATTAASSSLATPELGSSLKKKKRLSQSDEDVIRLIGQHLNGLGLNQTVDLLMQESGCRLEHPSATKFRNHVMEGDWDKAENDLNELKPLVHSPHAIVVRGALEISQTLLGIIVRMKFLLLQQKYLEYLEDGKVLEALQVLRCELTPLKYNTERIHVLSGYLMCSHAEDLRAKAEWEGKGTASRSKLLDKLQTYLPPSVMLPPRRLQTLLRQAVELQRDRCLYHNTKLDNNLDSVSLLIDHVCSRRQFPCYTQQILTEHCNEVWFCKFSNDGTKLATGSKDTTVIIWQVDPDTHLLKLLKTLEGHAYGVSYIAWSPDDNYLVACGPDDCSELWLWNVQTGELRTKMSQSHEDSLTSVAWNPDGKRFVTGGQRGQFYQCDLDGNLLDSWEGVRVQCLWCLSDGKTVLASDTHQRIRGYNFEDLTDRNIVQEDHPIMSFTISKNGRLALLNVATQGVHLWDLQDRVLVRKYQGVTQGFYTIHSCFGGHNEDFIASGSEDHKVYIWHKRSELPIAELTGHTRTVNCVSWNPQIPSMMASASDDGTVRIWGPAPFIDHQNIEEECSSMDS
notes: WDR26, human, from human cDNA library (pFLN WDR26); The models 8QE8 and 8QBN exclude the CTLH-CRA^N domain of WDR26; also called WDR26 dimer
stoichiometry N: 2

— article PMC7616709 (Molecular cell, 2024)
